According to US20250161472A1 (BIOATLA, published 2025):
Each block holds one binder with its values, some of them ahead of it.

Experiments:
[1] = target: human ROR2 (receptor tyrosine kinase-like orphan receptor 2) (human) (UniProt Q01974); assay: affinity ELISA on human ROR2, pH 7.4
[2] = target: human ROR2 (receptor tyrosine kinase-like orphan receptor 2) (human) (UniProt Q01974); assay: affinity ELISA on human ROR2, pH 6.0
[3] = target: human ROR2 (receptor tyrosine kinase-like orphan receptor 2) (human) (UniProt Q01974); assay: affinity ELISA on human ROR2, signal at pH 6.0 over pH 7.4
[4] = target: T1, human ROR2 (receptor tyrosine kinase-like orphan receptor 2) (human, UniProt Q01974 34-403, limits assumed); assay: affinity ELISA on human ROR2, pH 7.4; design: unit not given here
T1 construct: Antigen of the ELISA, SPR and pH titration assays; also called hROR2
T1 sequence (Q01974 34-403 limits assumed): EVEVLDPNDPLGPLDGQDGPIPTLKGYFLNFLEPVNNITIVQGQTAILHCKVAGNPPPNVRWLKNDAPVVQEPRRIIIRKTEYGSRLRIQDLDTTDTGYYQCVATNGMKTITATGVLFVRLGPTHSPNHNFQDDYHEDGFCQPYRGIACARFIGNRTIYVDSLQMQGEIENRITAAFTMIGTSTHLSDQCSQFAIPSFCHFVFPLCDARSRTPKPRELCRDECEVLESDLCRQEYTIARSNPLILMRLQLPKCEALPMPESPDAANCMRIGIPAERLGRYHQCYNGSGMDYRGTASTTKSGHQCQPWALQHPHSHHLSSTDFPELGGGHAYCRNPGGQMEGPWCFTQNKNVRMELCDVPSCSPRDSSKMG

[5] = target: T1, human ROR2 (receptor tyrosine …); assay: affinity ELISA on human ROR2, pH 6.0; design: unit not given here
[6] = target: human ROR2 expressed on the surface of HEK293 cells (human, UniProt Q01974 34-943); assay: cell-based or functional assay
human ROR2 expressed on the surface of HEK293 cells, sequence (Q01974 34-943): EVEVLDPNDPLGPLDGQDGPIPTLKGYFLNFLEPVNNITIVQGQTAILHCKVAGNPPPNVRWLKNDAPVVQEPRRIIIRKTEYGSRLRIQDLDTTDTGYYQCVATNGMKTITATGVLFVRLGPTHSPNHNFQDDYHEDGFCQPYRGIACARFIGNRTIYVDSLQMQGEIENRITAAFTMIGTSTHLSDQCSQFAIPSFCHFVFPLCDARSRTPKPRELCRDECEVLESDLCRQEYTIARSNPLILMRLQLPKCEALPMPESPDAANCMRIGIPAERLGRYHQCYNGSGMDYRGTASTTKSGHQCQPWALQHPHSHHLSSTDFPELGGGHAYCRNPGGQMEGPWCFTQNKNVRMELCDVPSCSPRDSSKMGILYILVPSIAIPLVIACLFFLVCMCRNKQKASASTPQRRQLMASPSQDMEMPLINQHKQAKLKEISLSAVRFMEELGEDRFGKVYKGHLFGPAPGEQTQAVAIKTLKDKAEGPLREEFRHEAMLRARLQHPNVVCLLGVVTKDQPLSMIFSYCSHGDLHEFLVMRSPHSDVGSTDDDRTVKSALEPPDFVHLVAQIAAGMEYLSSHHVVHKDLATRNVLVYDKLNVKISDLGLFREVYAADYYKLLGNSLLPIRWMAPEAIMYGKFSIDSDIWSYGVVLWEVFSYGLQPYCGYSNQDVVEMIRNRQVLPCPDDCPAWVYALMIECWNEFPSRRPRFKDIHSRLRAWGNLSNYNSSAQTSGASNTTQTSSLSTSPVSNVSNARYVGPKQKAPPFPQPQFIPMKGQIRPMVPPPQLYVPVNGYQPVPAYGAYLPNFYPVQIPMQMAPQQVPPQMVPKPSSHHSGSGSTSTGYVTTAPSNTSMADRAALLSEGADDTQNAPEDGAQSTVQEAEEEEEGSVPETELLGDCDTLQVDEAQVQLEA

[7] = target: T1, human ROR2 (receptor tyrosine …); assay: plate binding assay (ELISA per Example 1) on ROR2 at pH 6.0 and pH 7.4, 40 ng mAb, untreated and after 1 h at 60°C

human ROR2 (receptor tyrosine kinase-like orphan receptor 2) (human), sequence (Q01974 34-403 limits assumed): as the sequence (Q01974 34-403 limits assumed) above

Affinity ELISA, pH 7.4 [1]: 0.115 | Affinity ELISA, pH 6.0 [2]: 0.224 | ratio, pH 6.0/7.4 [3]: 1.95
B1: HC-N106E (antibody, V domains shown)
VH: EVQLQQSGPELVKPGASVKISCKTSGYTFTEYTMHWMKQSHRKSLEWIGGINTNNGGTGYNQKFKGKATLTVDKSSSTAYMELRSLTSEDSAVYFCARGSLYSYGESYFDYWGQGTLVTVSS
VL: QIVLTQSPAIMSASPGEKVTITCSATSSVSYMHWFQQKPGTSPKLWIYGTSNLASGVPARFSGSGSGTSYSLTISRMEAEDAATYYCQQRSSYPFTFGQGTKVEIK

Affinity ELISA, pH 7.4 [1]: 0.107 | Affinity ELISA, pH 6.0 [2]: 0.19 | ratio, pH 6.0/7.4 [3]: 1.77
B2: LC-F097D (antibody, V domains shown)
VH: EVQLQQSGPELVKPGASVKISCKTSGYTFTEYTMHWMKQSHRKSLEWIGGINTNNGGTGYNQKFKGKATLTVDKSSSTAYMELRSLTSEDSAVYFCARGSLYSYGNSYFDYWGQGTLVTVSS
VL: QIVLTQSPAIMSASPGEKVTITCSATSSVSYMHWFQQKPGTSPKLWIYGTSNLASGVPARFSGSGSGTSYSLTISRMEAEDAATYYCQQRSSYPFTDGQGTKVEIK

Affinity ELISA, pH 7.4 [4]: 0.474 | Affinity ELISA, pH 6.0 [5]: 0.755
B3: LC-T096D (antibody, V domains shown)
VH: EVQLQQSGPELVKPGASVKISCKTSGYTFTEYTMHWMKQSHRKSLEWIGGINTNNGGTGYNQKFKGKATLTVDKSSSTAYMELRSLTSEDSAVYFCARGSLYSYGNSYFDYWGQGTLVTVSS
VL: QIVLTQSPAIMSASPGEKVTITCSATSSVSYMHWFQQKPGTSPKLWIYGTSNLASGVPARFSGSGSGTSYSLTISRMEAEDAATYYCQQRSSYPFDFGQGTKVEIK
notes: CPE single point mutant of parent VL 48.6-LC-WT

Affinity ELISA, pH 7.4 [4]: 0.7 | Affinity ELISA, pH 6.0 [5]: 1.34
B4: LC-Y031C (antibody, V domains shown)
VH: EVQLQQSGPELVKPGASVKISCKTSGYTFTEYTMHWMKQSHRKSLEWIGGINTNNGGTGYNQKFKGKATLTVDKSSSTAYMELRSLTSEDSAVYFCARGSLYSYGNSYFDYWGQGTLVTVSS
VL: QIVLTQSPAIMSASPGEKVTITCSATSSVSCMHWFQQKPGTSPKLWIYGTSNLASGVPARFSGSGSGTSYSLTISRMEAEDAATYYCQQRSSYPFTFGQGTKVEIK
notes: as for B3

Affinity ELISA, pH 7.4 [4]: 0.405 | Affinity ELISA, pH 6.0 [5]: 0.911
B5: LC-Y031D (antibody, V domains shown)
VH: EVQLQQSGPELVKPGASVKISCKTSGYTFTEYTMHWMKQSHRKSLEWIGGINTNNGGTGYNQKFKGKATLTVDKSSSTAYMELRSLTSEDSAVYFCARGSLYSYGNSYFDYWGQGTLVTVSS
VL: QIVLTQSPAIMSASPGEKVTITCSATSSVSDMHWFQQKPGTSPKLWIYGTSNLASGVPARFSGSGSGTSYSLTISRMEAEDAATYYCQQRSSYPFTFGQGTKVEIK
notes: as for B3

B6: BAP048 conjugated to monomethyl auristatin E (BAP048 ADC) (other)
VL: AIQLTQSPSSLSASVGDRVTITCSATSSVSYMHWYLQKPGQSPQLLIYGTSNLASGVPDRFSGSGSGTDFTLKISRVEAEDVGVYYCQQRSSYPFTFGQGTKVEIK
VH: EVQLVQSGAEVKKPGESLRISCKGSGYTFTEYTMHWVRQAPGQGLEWMGGINTNNGGTGYNQKFKGRVTISADKSISTAYLQWSSLKASDTAMYYCAHGSLYSYGNSYFDYWGQGTLVTVSS
modifications: MMAE drug conjugate (site, chain and linker not stated in Example 5)
cell killing, difference of effective concentration between pH 7.4 and pH 6.0 [6]: ~10 fold

binding result [7]: binds
B7: BAP048.7-humC02D09-CAB )#3947) (antibody, V domains shown)
VH: QVQLVQSGAEVKKPGASVKVSCKASGYTFTEYTMHWVRQARGQRLEWIGGINTNNGGTGYNQKFKGRVTISADKSISTAYLQWSSLKASDTAMYYCAHGSLYSYGNSYFDYWGQGTLVTVSS
VL: AIQLTQSPSSLSASVGDRVTITCSATSSVSYMHWYQQKPGQAPRLLIYGTSNLASGVPDRFSGSGSGTDFTLKISRVEAEDVGVYYCQQRSSYPFTFGQGTKVEIK
notes: The sheet says 'mAb'; also called BAP048.7-C02D09; ROR2-CAB1-ADC (as conjugate)

binding result [7]: binds
B8: BAP048.7-humA03F01-CAB (#3948) (antibody, V domains shown)
VH: EVQLVQSGAEVKKPGESLRISCKGSGYTFTEYTMHWIRQSPSRGLEWLGGINTNNGGTGYNQKFKGRVTISADKSISTAYLQWSSLKASDTAMYYCAHGSLYSYGNSYFDYWGQGTLVTVSS
VL: AIQLTQSPSSLSASVGDRVTITCSATSSVSYMHWYLQKPGQSPQLLIYGTSNLASGVPDRFSGSGSGTDFTLKISRVEAEDVGVYYCQQRSSYPFTFGQGTKVEIK
notes: The sheet says 'mAb'; also called BAP048.7-humA03F01 (#3948); BAP048.7-A03F01
